Test results published in patent publication EP2239269B1, “Use of peptides derived from copolymer-1 as molecular weight markers” (YEDA RESEARCH AND DEVELOPMENT CO., LTD., priority 1998, dated 2013).

B1: TV-66: 66-mer sequence-defined polypeptide molecular weight marker of Ala, Glu, Tyr, Lys, molecular weight = 7040 daltons (peptide)
chain: AKKYAKKEKAYAKAKKAEAKAAKKAKAEAKKYAKAAKAEKKEYAAAEAKYKAEAAKAAAKEAAYEA
B2: TV-109: 109-mer sequence-defined polypeptide molecular weight marker, molecular weight = 11727 daltons (peptide)
chain: AKKYAKKAEKAYAKKAKAAKEKKAYAKKEAKAYKAAEAKKKAKAEAKKYAKEAAKAKKEAYKAEAKKYAKAAKAEKKEYAAAEAKKAEAAKAYKAEAAKAAAKEAAYEA
B3: TV-86: 86-mer sequence-defined polypeptide molecular weight marker of Ala, Glu, Tyr, Lys, molecular weight = 9220 daltons (peptide)
chain: AKKYAKKEKAYAKKAEKAAKKAEAKAYKAAEAKKKAKAEAKKYAKAAKAEKKEYAAAEAKYKAEAAKKAYKAEAAKAAAKEAAYEA
B4: TV-77: 77-mer sequence-defined polypeptide molecular weight marker of Ala, Glu, Tyr, Lys, molecular weight = 8259 daltons (peptide)
chain: AKKYAKKEKAYAKKAEKAAKKAEAKAYKAAEAKKKAKAEAKKYAKAAKAEKKEYAAAEAKYKAEAAKAAAKEAAYEA

How the values were obtained:
Type in all cases: physicochemical
[1] = Circular dichroism, molar ellipticity (Jobin-Yvon CD spectrophotometer); set-up: unit not given here
Excerpt: Circular dichroism - Structural similarity between the molecular weight markers and glatiramer acetate is a pre-requisite for an appropriate calibration of a molecular sizing column. Differences in polypeptide structure may result in different hydrodynamic size and consequently in altered retention time in the chromatographic system. The ellipticity, determined by circular dichroism, serves as a measure of the secondary structure of a polypeptide. When the ellipticity of the molecular weight markers and glatiramer acetate is similar, the structures of the two will be similar.
The molar ellipticity of the polypeptides was determined on a Jobin-Yvon CD spectrophotometer. […] Note that while the exact molecular weight for the TV-markers was plotted, the averace-by-number molecular weight for the glatiramer acetate was used in the plot.

[2] = Stability of marker solutions stored frozen at -10 to -20°C, followed by retention time at column calibration; set-up: unit not given here; settings: stored at -10° to -20°C
Protocol: In addition, solutions of the markers were stored for up to 3 ½ months under various storage conditions (2-8 °C, -10 to -20°C, with/without azide).

[3] = Stability of markers in solution at room temperature, followed by peak retention time on chromatography; settings: for Peak Retention Time, Average: average of the four analyses over 24 hours, room temperature; for Peak Retention Time: solution at room temperature, 0.1 mg/ml
Protocol: Stability of markers in solution - TV-markers were chromatographed four times over a period of 24 hours. All markers were kept as solutions at room temperature and were analyzed at 8 hour intervals.

[4] = date of calibration 04-step-97, interval 105 days
[5] = date of calibration 09-Jul-97, interval 48 days
[6] = date of calibration 22-May-97, interval -
[7] = 1st of four analyses at 8 hour intervals over 24 hours
[8] = 2nd of four analyses at 8 hour intervals
[9] = 3rd of four analyses at 8 hour intervals
[10] = 4th of four analyses at 8 hour intervals

Molecule | M-ellip. (210nm) [1] | RT [2, 4] | RT [2, 5] | RT [2, 6] | Peak Retention Time, Average [3] | Peak Retention Time [3, 7] [min] | Peak Retention Time [3, 8] [min] | Peak Retention Time [3, 9] [min] | Peak Retention Time [3, 10] [min]
B1 | -3.5172 | 26.300 | 26.317 | 26.233 | 27.404 | 27.400 | 27.350 | 27.433 | 27.433
B2 | -6.818 | 23.583 | 23.650 | 23.500 | 24.842 | 24.783 | 24.850 | 24.883 | 24.850
B3 | -5.4546 | 24.950 | 25.017 | 24.883 | 26.129 | 26.117 | 26.100 | 26.150 | 26.150
B4 | -4.8365 | 25.550 | 25.617 | 25.467 | 26.746 | 26.750 | 26.700 | 26.750 | 26.783
